{"source": "patent US20170137490A1", "about": "“PEPTIDES, AND METHODS AND APPARATUS UTILISING SAME” (The University of Manchester, priority 2014, published 2017)", "test_system": "human anti-PLA2R autoantibodies", "assay": "Western blotting of PLA2R fragments with human anti-PLA2R autoantibodies", "assay_type": "binding", "data": [{"molecule": "mouse PLA2R: recombinant mouse PLA2R (R&D) (protein) QDLTHIQEPSLEWRDKGIFIIQSESLKTCIQAGKSVLTLENCKQPNEHMLWKWVSDDHLFNVGGSGCLGLNISALEQPLKLYECDSTLISLRWHCDRKMIEGPLQYKVQVKSDNTVVARKQIHRWIAYTSSGGDICEHPSRDLYTLKGNAHGMPCVFPFQFKGHWHHDCIREGQKEHLLWCATTSRYEEDEKWGFCPDPTSMKVFCDATWQRNGSSRICYQFNLLSSLSWNQAHSSCLMQGGALLSIADEDEEDFIRKHLSKVVKEVWIGLNQLDEKAGWQWSDGTPLSYLNWSQEITPGPFVEHHCGTLEVVSAAWRSRDCESTLPYICKRDLNHTAQGILEKDSWKYHATHCDPDWTPFNRKCYKLKKDRKSWLGALHSCQSNDSVLMDVASLAEVEFLVSLLRDENASETWIGLSSNKIPVSFEWSSGSSVIFTNWYPLEPRILPNRRQLCVSAEESDGRWKVKDCKERLFYICKKAGQVPADEQSGCPAGWERHGRFCYKIDTVLRSFEEASSGYYCSPALLTITSRFEQAFITSLISSVAEKDSYFWIALQDQNNTGEYTWKTVGQREPVQYTYWNTRQPSNRGGCVVVRGGSSLGRWEVKDCSDFKAMSLCKTPVKIWEKTELEERWPFHPCYMDWESATGLASCFKVFHSEKVLMKRSWREAEAFCEEFGAHLASFAHIEEENFVNELLHSKFNWTQERQFWIGFNRRNPLNAGSWAWSDGSPVVSSFLDNAYFEEDAKNCAVYKANKTLLPSNCASKHEWICRIPRDVRPKFPDWYQYDAPWLFYQNAEYLFHTHPAEWATFEFVCGWLRSDFLTIYSAQEQEFIHSKIKGLTKYGVKWWIGLEEGGARDQIQWSNGSPVIFQNWDKGREERVDSQRKRCVFISSITGLWGTENCSVPLPSICKRVKIWVIEKEKPPTQPGTCPKGWLYFNYKCFLVTIPKDPRELKTWTGAQEFCVAKGGTLVSIKSELEQAFITMNLFGQTTNVWIGLQSTNHEKWVNGKPLVYSNWSPSDIINIPSYNTTEFQKHIPLCALMSSNPNFHFTGKWYFDDCGKEGYGFVCEKMQDTLEHHVNVSDTSAIPSTLEYGNRTYKIIRGNMTWYAAGKSCRMHRAELASIPDAFHQAFLTVLLSRLGHTHWIGLSTTDNGQTFDWSDGTKSPFTYWKDEESAFLGDCAFADTNGRWHSTACESFLQGAICHVVTETKAFEHPGLCSETSVPWIKFKGNCYSFSTVLDSRSFEDAHEFCKSEGSNLLAIRDAAENSFLLEELLAFGSSVQMVWLNAQFDNNNKTLRWFDGTPTEQSNWGLRKPDMDHLKPHPCVVLRIPEGIWHFTPCEDKKGFICKMEAGIPAVTAQPEKGLSHS", "values": [{"measurement": "recognition by human anti-PLA2R autoantibodies", "result": "fail to react"}]}]}
